Experiment [1] addresses Tet repressor protein from class B [TetR(B)] (Escherichia coli) (UniProt P04483). Put plainly: cell-based or functional assay.
Experiment [2] concerns the target TetR(B/D)188-208 (UniProt P0ACT4). Put plainly: cell-based or functional assay.

Consider “TrxA-pepBs1 (C-terminal fusion of pepBs1 to Escherichia coli thioredoxin A) (from UniProt P0AA25 2-109)”, for which the factor of induction of β-galactosidase activity at 60 µM IPTG in experiment [1] worked out at 14 fold.
In experiment [2], “SbmC(C)-pepBs1 fusion protein (from UniProt P33012 1-157)” displayed a β-galactosidase activity at 60 µM IPTG of 4 fold.
In experiment [1], “PepBs1-TrxA (N-terminal fusion of pepBs1 to Escherichia coli thioredoxin A) (from UniProt P0AA25 2-109)” yielded a factor of induction of β-galactosidase activity at 60 µM IPTG of 40 fold and an induction of β-galactosidase activity against the C-terminal fusion TrxA-pepBs1 (fold higher than the C-terminal fusion) of 3.

The record behind these values is patent US20080020377A1.
